Experimental data from the DeepSol protein solubility set.

test: soluble on expression in E. coli; label from the status in PepcDB or PDB records

Sequence | soluble on expression in E. coli
MNAADRVMQSYGRCCASTGFFDDFYRHFLASSPQIRAKFATTDMTAQKHLLRAGIMNLVMYARGMSDSKLRALGASHSRAALDIRPELYDLWLDALLMAVAEHDRDCDAETRDAWRDVMGRGIAVIKSYY | soluble
MSVVALVLAAGSSVRFGADKRRSLMADGRSLLVHSVESACAVFDDVRVVLREGERGVDLGLPARCRVVSSPNFTLGMGHSLAAGAASLADSEAQAVAILLGDMPWVASATLDLLAREASGSTIVLPCHAGRQGHPVLFGRDFWPALARLKGDEGARSVVKANPAVCVRLEVQDAGVLQDVDRPDAVRPLEHHHHHH | soluble
MGSDKIHHHHHHMSKIKVALLVDEYFGGAKTKYGGYGFLARHLVAKHLPDDQVDVDVLLKKDCGKVRLWPKCFMVDGIRVYKLAARAFDWVNNLFLRQKNYDVFLSIEMTTHSYRIFSKAPGKNKKLLFWIQDPRPTYEWDEIQTVKLFPEPSYWDAEIYDFVNQYARSGNVRFISQAKCLDQKARDLYRLPANTSINYLPNPIEIDETFDLDSFPKQNSIIFLGRIESVKRGWLFAEIAKAMPQCQFYMLGQAHRQADENNAVMSGYQAIPNLHFVGHVEGEQKNRFLKEAKVLVNTSIHEALPISFLEALSYGTLLVSCQNPDELASKFGVYTGKVLGDGFDKVELFVAGINQLLTNDDHRHQLAKDAIAYIKEVHSLSRFTGDIKHELLTLCASRNEPVKATGRTTTSTVQ | not soluble
SAGPQQQPPYLHLAELTASQFLEIWKHFDADGNGYIEGKELENFFQELEKARKGSGMMSKSDNFGEKMKEFMQKYDKNSDGKIEMAELAQILPTEENFLLCFRQHVGSSTEFMEAWRKYDTDRSGYIEANELKGFLSDLLKKANRPYDEPKLQEYTQTILRMFDLNGDGKLGLSEMSRLLPVQENFLLKFQGMKLTSEEFNAIFTFYDKDRSGYIDEHELDALLKDLYEKNKKEMNIQQLTNYRKSVMSLAEAGKLYRKDLEIVLCSEPPM | soluble
MGSDKIHHHHHHMKLTCMQEDLKRGLAAVGHAVAGKSTLPVLANILLATDEGRLKLTATNLEVGINRWISATITRDGAVAVPAKLLTDVVGGLPNDKVTLSLDQKTQTLRVECGRFVSNIKGVDADEFPSLPTVSAQTPLVSLPAEVWQEAIDQVAFAAATDESRPILTGVLVRTRDQQVTLVAADGFRLAMRTIQLSAPVAHAVDCLIPARTLSELARIIGDTDAEVAMVYTPGGSHVLFHTENIEVVSRLIEGRFPDFERIIPQQYLTRMVLDNSELAKAVKLASFFAGSSQNVVKLKIEPASELAPGRVVISANAAELGDNTSELDGSVTGEGGVIALNVRFLADAIAAVHSNQIAFEMQSAQSPAVFKPVGQDGYIHIVMPMSMR | not soluble
MGSDKIHHHHHHMQNWLKQITTGAMIGTTVLVTSACTMRLSESTFIASDEVPVAFTAEFTQQLQQAMPNHLITPLSLEASDHVKLNGFYIDNPNSLTTLVFYQGNGMKIEPHGLSVLTTLSTLNTDILVMDRRGLGASEGQPSINNIIADAQQQLDYLHQQYQPEKVILHGYSLGSFIAADLAKNNKIDALILHGSATNADDWVDEKTPWYMAPFMTLEMPEDFRKTDNKQVVAQYYQGPLLVIAAEEDEEVPPELSEKLFVASQSANKQLIMVPNVGHQGMLDDANTMSQYQTFITEL | not soluble
MGSDKIHHHHHHMQIKEFLISRRSEVVNNFYDNYYTQTDEYKLRLSAGEDEQSIRSLSTASCGMIIDVITGVKERDFENIGKRRFNDKTDIRKIHQHMSEIDKFIINSLLKWKETEDVFYTDADIIQFMLEIKDTLASIQQQLLEGFMQENRNQVMAQRKEIIQLSTRIIPITDSIGVLPIVGSLDDDRGYFMKEKAIESADKLNLDFIVIDFSSAVLKDDFATKHMEDMIQSFKLIGLIPILSGMQPSFAQRTIQVGSNISKLQSFGSLEQALTNLGL | not soluble
MGSDKIHHHHHHMKKIPCVMMRGGTSRGAFLLAEHLPEDQTQRDKILMAIMGSGNDLEIDGIGGGNPLTSKVAIISRSSDPRADVDYLFAQVIVHEQRVDTTPNCGNMLSGVGAFAIENGLIAATSPVTRVRIRNVNTGTFIEADVQTPNGVVEYEGSARIDGVPGTAAPVALTFLNAAGTKTGKVFPTDNQIDYFDDVPVTCIDMAMPVVIIPAEYLGKTGYELPAELDADKALLARIESIRLQAGKAMGLGDVSNMVIPKPVLISPAQKGGAINVRYFMPHSCHRALAITGAIAISSSCALEGTVTRQIVPSVGYGNINIEHPSGALDVHLSNEGQDATTLRASVIRTTRKIFSGEVYLP | not soluble
GSHMASKISDNVRIKLYMEGTVNNHHFMCEAEGEGKPYEGTQMENIKVTKGGPLPFSFDILTPNCQYGSVAITKYTSGIPDYFKQSFPEGFTWERTTIYEDGAYLTTQQETKLDGNCLVYNIKILGCNFPPNGPVMQKKTQGWEPCCEMRYTRDGVLCGQTLMALKCADGNHLTCHLRTTYRSKKAAKALQMPPFHFSDHRPEIVKVSENGTLFEQHESSVARYCQTCPSKLGHN | soluble
MGSDKIHHHHHHMITASIVTYHHHFKDIRKVIECILSSPVSILYIIDNSSNDRLRELAKISAKIKYIHSVNLGYGAGHNIAIRESIDIGATYHIVVNPDIYFEEGVIEKLIIYMNKYSEVGLVMPRVLYPNGELQYLCKLLPTPFDLLFRRFLPWRRYVEKKNEKYELRFTNYSREMEVPSLSGCFMFVRIAVLKKVGGFDERYFMYAEDLDLCRRIGKVSRTMYYPNVVVYHEYAKGSYKNRRLLRYHLSSVVKYFNKWGWVWDLDRKIINKRILDNLKNV | not soluble
MMISIFSLLASTAILVFANGQSNVKLEFVQAMWRHGERASQVDQYPIYEKDWIYGGGGLGELTAIGMGEMNELGWLIRKRYVTKLKFLTPKYASREVYFRSTNFNRTIISAQSLLYGLFPPSLYDVKNVDYPYSPLTWFPGFTFVPVHVDGPDQCAASQNCPCTRYDLLQGQMLTLPEVLPKYTQVVLLNRRVGGYYNMTSGLDSFTTYPDTWKCQRAYFNRTMYAKLPWYNEELYYQAQVTYAPVKGFLEGNFENPAVTSSGLDVGLEIKKVRSGVIINEVFNRANEKLNCAELGQNCTSYLNKLKFYGYSIHDNNVYGVLVALGIPQIANTLDGWPAYAAGIFMEFHRNTSTNERFFKVLYREGDDTPISDVTSQLPICNGATLCPLGALQTLAETLKPLPDITTLCKTPL | not soluble
MAHHHHHHMRNVLFNGPMIPEIDAGYNVQVNGVSVNFLKDPFCFRNVVIENAYYKNKLLYKNFNDDNVNKNITNHIKRENIVELDKEFNECIKDSLNNNHVHIKKNEPDYKLNDIKSPIYKERTKYTPKIIEVIKTNYNVPHDERVKIHKENLMYMNNIEYKKANEIVEKVILTIKNETIQKPVELANDEPNNILKPNNIFKKMLL | not soluble
MRDNASLAHTQWNCKYHIVFAPKYRRQVIYGKIKKDIGQILRKLCEMKGVEIIEASLCPDHIHMLVSIPPKISVSSFMGYLKGKSSLMIFNRHANLKYKYGNRHFWCRGYYVDTVGRNRKAIEQYIRRQLQEDIASDQISLNEYIDPFTGERVNKSKK | not soluble
MGSDKIHHHHHHMQRENFGPAWLNENNAVMYFIVGTDIDVDIDDEIKTYEDIIQVDINENYHNITYKAIFWINEINKCRHGPKLLLKIDDDVHIDMIGLQFLIKRYSVMDDFMACRVISNGQVVRNNTSKWYLSKKDYKFPNLGTYCQGMVYFISGNLLPILHGNIEKSQFLWMDDWYVTRSLVGDYKISYYSLEQHSISPNTVREVYSSLMAIKTRKWRTIFAHFRPPQKFPMYRRRKIWANITEINNSCNILRKARINFVSAY | not soluble
MASKSRILQLKGTGLKKVPDEIEPLADVLRNLELSENKIREIPIFIGQFSQLKQLHLANNCLEFLPDELGSMKKLEILNLAGNKLKALPDTIVGCTDLKTIDLSSNVFTVFPVAVIGCLQLDILNLNGNQIESLPDDISNLKVIELSLNQNRLSSLNPSNLAKTTRLRTLRLDENCLEKSEFTRDLLESSTISVMSYDGNRFQLKDFQDLPGYDAYQERFTATKRKI | not soluble
FGVWVLVPRSFPRCVWFQRSMAVVIRLQGLPIVAGTMDIRHFFSGLTIPDGGVHIVGGELGEAFIVFATDEDARLGMMRTGGTIKGSKVTLLLSSKTEMQNMIELSRRRFETANLDIPPANASRSGPPPSSGMSSRVNLPTTVSNFNNPSPSVVTATTSVHESNKNIQTFSTASVGTAPPNMGASFGSPTFSSTVPSTASPMNTVPPPPIPPIPAMPSLPPMPSIPPIPVPPPVPTLPPVPPVPPIPPVPSVPPMTPLPPMSGMPPLNPPPVAPLPAGMNGSGAPMNLNNNLNPMFLGPLNPVNPIQMNSQSSVKPLPINPDDLYVSVHGMPFSAMENDVRDFFHGLRVDAVHLLKDHVGRNNGNGLVKFLSPQDTFEALKRNRMLMIQRYVEVSPATERQWVAAGGHITFKQNMGPSGQTHPPPQTLPRSKSPSGQKRSRSRSPHEAGFCVYLKGLPFEAENKHVIDFFKKLDIVEDSIYIAYGPNGKATGEGFVEFRNEADYKAALCRHKQYMGNRFIQVHPITKKGMLEKIDMIRKRLQNFSYDQREMILNPEGDVNSAKVCAHITNIPFSITKMDVLQFLEGIPVDENAVHVLVDNNGQGLGQALVQFKNEDDARKSERLHRKKLNGREAFVHVVTLEDMREIEKNPPAQGKKGLKMPVPGNPAVPGMPNAGLPGVGLPSAGLPGAGLPSTGLPGSAITSAGLPGAGMPSAGIPSAGGEEHAFLTVGSKEANNGPPFNFPGNFGGSNAFGPPIPPPGLGGGAFGDARPGMPSVGNSGLPGLGLDVPGFGGGPNNLSGPSGFGGGPQNFGNGPGSLGGPPGFGSGPPGLGSAPGHLGGPPAFGPGPGPGPGPGPIHIGGPPGFASSSGKPGPTVIKVQNMPFTVSIDEILDFFYGYQVIPGSVCLKYNEKGMPTGEAMVAFESRDEATAAVIDLNDRPIGSRKVKLVLG | soluble
MAHHHHHHMVSGFVEFEILRGKNYPQTEDDPNPCTTQVTVSVVDALSGAVLSRAQLSSIQQNSNAPFYNDTLNFRVEDAPEDVCLSISVSEHSRQKIPFVLFYGKQIIGLSKLKAKQRFVIPLFSGEEGTQQVEIGADTLDLESSGKVPFLSARIQFTKDKVFDKTDPYSDVDVSGKGLSFDGKNQLVPEGTQYVWLRLKSDKKWTNSFQYELSVAWRSRAPLEAENQGNTKSRKGTTGGMAAISAEPDSARTLGDIIIKKWCCRRTHQVLTRVCITAEKYGNKVTDLTFTPKEEVEFRTNKKERCVFLEQICKKRLEDACSNCLRQWLNRLWILFVTGVDSDPAEARALSYEVRKAVHDAQFTEADAIILQACLLFSFIPSLKYEVCQALSESDYQAAQSEKKIEVGALESPQCRVTPSQEMFTRVFISFVGSLLDTLTEAEIAKAAAEFKPAIWDAQQRIAKGAKSTIGSCKKKYEGSIFKGTGIHIDHLDKLGRRKQVPKFV | soluble
MGSDKIHHHHHHMRENKVVYGLIGYGGMGRWHTEILSNVPEAVIGGIYDIKEEKREEAKAKGFSVYETEEAMLADSDIDVVLIATPNDCHKPIAIRAMHAGKNVISEKPVTLSSADLLEMEKVAKETGKLFTVHQNRRWDDDFLIIKKLVEEQKLGHVFRIESRVHGSRGIPGDWRKEKVHGGGMVLDWGVHLLDQILYMYGDRKIETVYASLTNITNQEVDDGFTAILTFEGGTEVLVEVGTNNYISLPRWYVLGKDGTAVIRDWQLTGEIIRKTGKTEETVIPVKTAAGLTKTMAPRREDTIVKEDLPKVSGDIADFHRNVVAVIRDGAEPEIKLFQVMRVMKLMEAIFQAAETKQVIEFQDQV | not soluble
MGSDKIHHHHHHMDSLGEQPSNRAPVITISSGRYLAQIATYGGGIKSLTYDGRPLVETYPDDAFPPLNAGVVLAPWPNRTDAGAYDFQGQSYQLPITEPDRNNAIHGFVANAVWNIDLIRPARVILSTTIEPQQGWPWAIELAADYLLTDSGLRAQFTATTPHEAVPFGFGWHTYLSAQGAEVDKTTLRVGVDKQWMLDDRNLPTGELVQPTNDVSGGLPMAGKLLDDCFLAERTPVTTVLESQGVGVSMHCSEQFPWFQIFTPDPAWEMPYPGRGRSVAVEPMTTSPNGLNLGIDTIGAASPWHGTITISAYNKHS | not soluble
